The values below are quoted from earlier work in PMC4074225.

For this series, the target named is PCNA (Homo sapiens) (UniProt P12004). Nature of the series: SPR.
Sequence of UniProt P12004 (P12004 whole entry): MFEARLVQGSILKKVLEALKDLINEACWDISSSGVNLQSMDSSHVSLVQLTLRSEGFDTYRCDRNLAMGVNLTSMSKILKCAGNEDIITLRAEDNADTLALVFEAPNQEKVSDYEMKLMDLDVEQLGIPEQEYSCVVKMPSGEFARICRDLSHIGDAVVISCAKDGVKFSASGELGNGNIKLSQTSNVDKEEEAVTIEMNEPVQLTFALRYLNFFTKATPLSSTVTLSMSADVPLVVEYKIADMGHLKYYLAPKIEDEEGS

On to “DNA polymerase eta 694-713 (from UniProt Q9Y253)”, for which the Kd is 400 nM.

For orientation: Kd means a measure of binding affinity in units of concentration.
